Conditions in all cases: label: 5'-32P
Data set [1] has as its target T1, von Willebrand Factor (vWF) (UniProt P04275 P04275:764-2813). The experiment in a line: filter; DPBS with Ca/Mg, 0.1 mg/mL BSA, 24 C.
Data set [2] has as its target T2, IL-23 (full length) (Homo sapiens, UniProt Q9NPF7;P29460 Q9NPF7:20-189,P29460:23-328). Nature of the data set: filter; PBS without Ca/Mg, 0.1 mg/mL BSA, RT 30 min; 13 nM in DPBS with Ca/Mg (Table 5). The text has this: (§1) A three-layer filtration medium was used, consisting (from bottom to top) of Protran nitrocellulose (Schleicher & Schuell), Hybond-P nylon (Amersham Biosciences) and GB002 gel blot paper (Schleicher & Schuell). RNA that is bound to protein is captured on the nitrocellulose filter, whereas the non-protein bound RNA is captured on the nylon filter. The gel blot paper was included simply as a supporting medium for the other filters. Following filtration, the filter layers were separated, dried and exposed on a phosphor screen (Amersham Biosciences, Piscataway, N.J.) and quantified using a Storm 860 Phosphorimager® blot imaging system (Amersham Biosciences).
A set of ARC979 (SEQ ID NO 1) derivative aptamers introducing single phosphorothioate substitutions (Glen Research, Sterling, Va.) were chemically synthesized by standard synthesis techniques. In each set of derivatives, single phosphorothioate substitutions were systematically introduced at each internucleotide linkage position resulting in each derivative within one set having an aptamer with a phosphorothioate substitution at a different internucleotide position. These derivatives were gel purified and assayed for IL-23 binding, using the dot blot assay described above under the following binding reaction conditions: 1×PBS (without Ca⁺⁺ or Mg⁺⁺) plus 0.1 mg/mL BSA, for a 30 minute incubation at room temperature. […]

Data set [3] deals with T2, IL-23 (full length). Nature of the data set: filter; DPBS with Ca/Mg, BSA, RT; parent 3.7 nM.
From the text: as §1
The dot blot binding assay previously described was used to characterize the relative potency of the majority of the aptamers synthesized as compared to the parent molecule, ARC1386. […] KD values were calculated by fitting the equation y=(max/(1+K/protein))+yint using KaleidaGraph (KaleidaGraph v. 3.51, Synergy Software).

Data set [4] concerns the target T1, von Willebrand Factor (vWF). The experiment in a line: filter; DPBS with Ca/Mg, 0.1 mg/mL BSA, 24 C.
From the text: as §1
A set of ARC1172 (SEQ ID NO 3) derivative aptamers introducing single phosphorothioate substitutions (Glen Research, Sterling, Va.) were chemically synthesized using standard synthesis techniques. In each set of derivatives, single phosphorothioate substitutions were systematically introduced at each internucleotide linkage position resulting in each derivative set having an aptamer with a phosphorothioate substitution at a different internucleotide position. […] KD values for the ARC1172 derivative aptamers were calculated by fitting the equation y=(max/(1+K/protein))+yint using KaleidaGraph (KaleidaGraph v. 3.51, Synergy Software).
This is another data set of the same source.

T2 sequence (Q9NPF7 20-189, chain 1 of 2): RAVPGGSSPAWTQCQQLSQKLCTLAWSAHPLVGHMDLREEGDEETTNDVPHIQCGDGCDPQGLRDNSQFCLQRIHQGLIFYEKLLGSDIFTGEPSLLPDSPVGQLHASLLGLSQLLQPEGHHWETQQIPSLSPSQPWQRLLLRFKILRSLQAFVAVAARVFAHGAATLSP
T2 sequence (P29460 23-328, chain 2 of 2): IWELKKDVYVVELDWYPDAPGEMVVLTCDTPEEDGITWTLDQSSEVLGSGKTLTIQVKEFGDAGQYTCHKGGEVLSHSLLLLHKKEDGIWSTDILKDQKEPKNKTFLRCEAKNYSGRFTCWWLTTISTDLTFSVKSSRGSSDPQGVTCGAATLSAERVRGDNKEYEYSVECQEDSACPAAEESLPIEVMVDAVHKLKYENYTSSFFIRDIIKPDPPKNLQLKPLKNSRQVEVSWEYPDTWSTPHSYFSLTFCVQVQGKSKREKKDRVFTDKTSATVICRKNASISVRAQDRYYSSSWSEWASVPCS

One may read the Kd as the concentration at which binding is half-saturated. In the case of GCGUGCAGUGCCUUCGGCCGTGCGGTGCCUCCGUCACGC (mixed, multiple 2'-OMe substitutions as in Table 3; 3'-idT (last t of SEQ)) [ARC1361], the Kd in data set [1] stood at 7.9 nM.

B1: ARC1368 (mixed)
mixed: GCGUGCAGUGCCUUCGGCCGTGCGGTGCCUCCGUCACGC
modifications: as ARC1361 plus PS between 20 and 21 (as printed, mG-s-T); 3'-idT (last t of SEQ)
For the molecule B1, binding in data set [1] was put at a Kd of 1.8 nM.
ACAGGCAAGUAAUUGGGGAGUGCGGGCGGGGUGU (mixed, 2'-deoxy purines, 2'-OMe pyrimidines (dRmY)) [ARC979] displayed a Kd in data set [2] of 90 nM.
As to ACAGGCAAGUAAUUGGGGAGUGCGGGCGGGGTGU (mixed, dRmY; 2'-deoxy dihydrouridine at 32; 3'-idT (last t of SEQ)) [ARC1713], the Kd in data set [3] is 2.2 nM.
As to ACAGGCAAGTAAUUGGGGAGUGCGGGCGGGGUGU (mixed, dRmY; 2'-deoxy dihydrouridine at 10; 3'-idT (last t of SEQ)) [ARC1709], the equilibrium dissociation constant (Kd) in data set [3] came out at 2.8 nM.
Take GGCGTGCAGTGCCTTCGGCCGTGCGGTGCCTCCGTCACGCC (ssDNA, 3'-idT (last t of SEQ)) [ARC1172 w/3T]: the equilibrium dissociation constant (Kd) in data set [4] amounted to 2 nM.
In the case of GGCGTGCAGTGCCTTCGGCCGTGCGGTGCCTCCGTCACGCC (ssDNA, 3'-idT as printed in Table 3) [ARC1172], the Kd in data set [1] came out at 2 nM.

Values taken from patent US20070066551, “Aptamer medicinal chemistry” (published 2007).
